# Measurements taken from IntAct's records for PubMed 15507434.
# B1: Microphthalmia-associated transcription factor (Homo sapiens), O75030 (parent)
# chain: MQSESGIVPDFEVGEEFHEEPKTYYELKSQPLKSSSSAEHPGASKPPISSSSMTSRILLRQQLMREQMQEQERREQQQKLQAAQFMQQRVPVSQTPAINVSVPTTLPSATQVPMEVLKVQTHLENPTKYHIQQAQRQQVKQYLSTTLANKHANQVLSLPCPNQPGDHVMPPVPGSSAPNSPMAMLTLNSNCEKEGFYKFEEQNRAESECPGMNTHSRASCMQMDDVIDDIISLESSYNEEILGLMDPALQMANTLPVSGNLIDLYGNQGLPPPGLTISNSCPANLPNIKRELTACIFPTESEARALAKERQKKDNHNLIERRRRFNINDRIKELGTLIPKSNDPDMRWNKGTILKASVDYIRKLQREQQRAKELENRQKKLEHANRHLLLRIQELEMQARAHGLSLIPSTGLCSPDLVNRIIKQEPVLENCSQDLLQHHADLTCTTTLDLTDGTITFNNNLGTGTEANQAYSVPTKMGSKLEDILMDDTLSPVGVTDPLLSSVSPGASKTSSRRSSMSMEETEHTC
# Variants of: B1
# Details: with tfeb_human TFEB
row,Variant,effect of a mutation on the interaction
1,K289R;K423R,with no effect

# Variants of: B1
# Details: with tfe3_human TFE3, P19532
# Chain of tfe3_human TFE3, P19532 (P19532 whole entry): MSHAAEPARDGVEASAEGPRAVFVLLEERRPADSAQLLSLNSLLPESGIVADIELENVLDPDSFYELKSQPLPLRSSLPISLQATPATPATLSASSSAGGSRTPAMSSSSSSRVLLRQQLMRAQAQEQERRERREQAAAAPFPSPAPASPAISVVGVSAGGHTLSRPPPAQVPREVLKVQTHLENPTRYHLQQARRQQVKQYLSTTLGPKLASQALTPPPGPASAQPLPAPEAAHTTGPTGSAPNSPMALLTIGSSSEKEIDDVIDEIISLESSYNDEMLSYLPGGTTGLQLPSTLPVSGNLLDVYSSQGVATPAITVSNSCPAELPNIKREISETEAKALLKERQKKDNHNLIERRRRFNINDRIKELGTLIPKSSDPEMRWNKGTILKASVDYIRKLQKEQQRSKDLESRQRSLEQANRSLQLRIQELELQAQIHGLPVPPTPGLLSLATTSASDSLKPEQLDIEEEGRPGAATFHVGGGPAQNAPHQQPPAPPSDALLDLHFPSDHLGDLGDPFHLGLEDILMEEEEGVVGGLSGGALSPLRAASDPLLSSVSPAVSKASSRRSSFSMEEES
row,Variant,effect of a mutation on the interaction
1,K289R;K423R,with no effect
